Experimental data from the supplement of paper PMC11865577.

Legend:
Experiment in all cases: pull-down binding Z-score (relative to library population); higher = stronger binding
[1] = tested on: TO-3-N3-2 (biotin conjugate); details: RNA library: Library-2
Outline: (§1)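 The RNA library, end-labelled with Cy5 or Cy3, was heat-folded in phosphate/NaCl/KCl buffer, and 1 μg was incubated at 25 °C for 60 min with streptavidin beads carrying 100 pmol of biotin-conjugated small molecule. Hot SDS released the bound RNA, which was then hybridised to a DNA barcode microarray for 20 h at 55.5 °C. For scoring binding, signal from beads alone was subtracted, replicate barcoded probes were averaged after discarding the highest and lowest, and each value was turned into a Z-score from the library mean and standard deviation.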

TO-N3 (biotin conjugate) = details: RNA library: Library-2
Outline: as §1

[2] = tested on: TO-N3-2 (biotin conjugate); details: RNA library: Library-2
Outline: as §1

[3] = tested on: TO-3-N3 (biotin conjugate); details: RNA library: Library-2
Outline: as §1

[4] = tested on: G-clamp-N3 (biotin conjugate); details: RNA library: Library-1 (pre-miRNA loops + repeats)
Outline: as §1

| Sequence | pull-down binding Z-score [1] | pull-down binding Z-score (TO-N3 (biotin conjugate)) | pull-down binding Z-score [2] | pull-down binding Z-score [3] | pull-down binding Z-score [4] |
| --- | --- | --- | --- | --- | --- |
| ACGCGCUGUGACACUUCAAACUCGU [hsa-mir-126] | -0.171 | 0.062 | 0.424 | -0.0932 | -0.904 |
| ACGUCCAGUGGUGCAGAGGUAAUGGACGU [hsa-mir-1306] | 0.227 | 0.283 | 1.37 | 0.0986 | 2.13 |
| ACGUCUGGCCGCGUGCGCAUGU [hsa-mir-3175] | -0.244 | 0.838 | 1.89 | -0.222 | 1.55 |
| ACGUGACCUCCUGGGCCUG [hsa-mir-6770-1_6770-3_6770-2] | 0.131 | 0.829 | 1 | 0.505 | -0.342 |
| ACUAAUUUUUCCACUAGUUAGU [hsa-mir-4424] | -0.199 | -0.137 | -1.16 | 0.228 | -0.61 |
| ACUACUAUAGGCCGCUGGGAAGCAGU [hsa-mir-130b] | 0.542 | 1.13 | 0.667 | 1.04 | 0.987 |
| ACUACUGUACUUUACAGCUAGCAGU [hsa-mir-301a] | -0.244 | 0.303 | 1.09 | -0.475 | 0.0373 |
| ACUACUGUGCUCUGAGAAGCAGU [hsa-mir-301b] | -0.255 | 0.643 | 0.325 | 0.599 | 1.42 |
| ACUAGAUUUGAAUCCAGACCUUUAGU [hsa-mir-5584] | 0.3 | 0.715 | -0.111 | 0.878 | -0.461 |
| ACUCCCAGAACUCAUUAAGUUGGUAGU [hsa-mir-1278] | -0.184 | -0.188 | -0.482 | -0.0721 | -0.174 |
| ACUCCUAGGUCACGGAAGU [hsa-mir-6838] | -0.33 | -0.23 | -0.0545 | -0.255 | -0.404 |
| ACUGAACCAGCUUCAAACAAGUUCACU [hsa-mir-653] | 0.0338 | -0.121 | -0.00579 | -0.0896 | -0.145 |
| ACUUAAGCACCAGGUAAAAUCUGGUGCUUAAGU [hsa-mir-4720] | -0.698 | -1.56 | -1.69 | -1.09 | 0.139 |
| ACUUCAGAUGCUUCAUGACA [hsa-mir-6865] | -0.117 | -0.0452 | -0.0136 | -0.0886 | -0.511 |
| ACUUUCACCAGAGAGCAGAAAGU [hsa-mir-371b] | -0.564 | -0.636 | -0.356 | -0.485 | 0.341 |
| ACUUUCUGGUGCCAGAAUGAAAGU [hsa-mir-512-2_512-1] | -0.218 | -0.538 | 0.129 | -0.391 | -0.15 |
| ACUUUCUGUUUGAAAGAAAACAAAGU [hsa-mir-519e] | -0.409 | -0.981 | -0.767 | -0.798 | -0.167 |
| ACUUUUUUUUUUUUUUUUUUUAAUGUUAAAAGU [hsa-mir-5588] | 0.823 | -0.82 | -0.107 | -0.429 | 0.463 |
| AGAAAAUUUUUCUCCAAAGUUUUCU [hsa-mir-4659b] | -0.443 | -1.06 | -1.66 | -0.634 | -0.123 |

| Sequence | pull-down binding Z-score [1] | pull-down binding Z-score (TO-N3 (biotin conjugate)) | pull-down binding Z-score [2] | pull-down binding Z-score [3] | pull-down binding Z-score [4] |
| --- | --- | --- | --- | --- | --- |
| AGAAACCUACUUAUUACAUAGUUUACAUAAGAAGCGUGAU [hsa-mir-1322] | -0.0921 | 0.0288 | -0.00549 | -0.129 | -0.594 |
| AGAAAGUGAAACACUAUUUUAGGUUUU [hsa-mir-4458] | -0.00981 | -0.0974 | -0.248 | 0.0524 | -0.486 |
| AGAAAUCAAGCUAUUUGCUAAAAGUUCU [hsa-mir-6844] | 0.246 | -0.316 | -0.0563 | -0.362 | -0.369 |
| AGAACAGAUAUAUCCACAGUACACUUGGCUGUUCU [hsa-mir-4753] | -0.354 | -0.943 | -0.635 | -0.759 | 0.593 |
| AGAACAUUCGUUCACUUUCCU [hsa-mir-6747] | -0.29 | -0.404 | -0.376 | -0.352 | -1.1 |
| AGAACUUUGGUUUU [hsa-mir-4434] | -0.611 | -1.1 | -1.38 | -0.711 | 0.298 |
| AGAAGAACU [hsa-mir-378j] | -0.0957 | -0.272 | -0.277 | -0.279 | -0.205 |
| AGAAGACCU [hsa-mir-378g] | 0.241 | 0.403 | 0.244 | 0.421 | 0.213 |
| AGAAGCCCAGGUUCUGAAUCCCCU [hsa-mir-6734] | 0.23 | 0.628 | 0.901 | 0.393 | -1.05 |
| AGAAGCUAAAGUGUAGAUCAAACGCAUAAUGGCUGA [hsa-mir-4500] | 0.195 | 0.65 | 0.233 | 0.197 | -0.364 |
| AGAAGGCCUAUGGUGAUUUGCAUUCUU [hsa-mir-6875] | 0.226 | -0.072 | -0.105 | -0.099 | 0.997 |
| AGAAUUACUUAUCUGAGCCAAAGUAAUUCA [hsa-mir-1297] | 0.225 | 0.386 | -0.336 | 0.332 | -0.86 |
| AGACAGCCUGAGUUGGAGGCUCAUCUUCACUUCUUGCUGUGU [hsa-mir-3168] | -0.221 | 0.262 | 0.168 | 0.0963 | -0.917 |
| AGACCUUCCUUCCUUGUCU [hsa-mir-3163] | -0.206 | -0.558 | -0.35 | -0.452 | -1.91 |
| AGACUCUGGAUUUUACACUUGGAGUG [hsa-mir-887] | -0.196 | -0.207 | -0.0223 | -0.461 | -0.423 |
| AGAGAUGAGCAUAAAGUUUUU [hsa-mir-6086] | -0.12 | -0.104 | -0.389 | 0.0616 | -1.36 |
| AGAGCACCUCCUAGAGAAUGUUGAACUAAAGGUGCCC [hsa-mir-4723] | 0.528 | 0.813 | 1.16 | 0.573 | -0.814 |
| AGAGCGUGGGCUGGGGUUCAGGGACACCCUCU [hsa-mir-1229] | 0.738 | 1.57 | 1.86 | 1.15 | 1.46 |
